Source: patent publication US20250074994A1 (Molecular Partners, published 2025)

T1: biotinylated recombinant human CD70 (extracellular domain, Fc tag) (human, UniProt P32970 52-193, chemically biotinylated using 5-fold excess of Biotin)
T1 construct: Bought from ACROBiosystems; also called bio.hCD70; Bio.CD70; not shown: C-terminal Fc Tag of the bought protein (ACROBiosystems)
T1 sequence: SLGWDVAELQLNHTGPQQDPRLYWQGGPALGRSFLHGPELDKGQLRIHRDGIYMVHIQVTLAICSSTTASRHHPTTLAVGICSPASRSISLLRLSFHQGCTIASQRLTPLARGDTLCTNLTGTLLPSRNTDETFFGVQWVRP

B1: DARPin® protein #3 (designed binder)
chain: MRGSHHHHHHGSDLGQKLLHAAQVGQDDEVRILLAAGADVNAKDTRGITPLHDTAFYGHLEIVEVLLKAGADVNAKDVTGWTPLHLAAYTGHLEIVEVLLKAGADVNAQDNEGITPADLAAFHGHEDIAEVLQKAA
B2: DARPin® protein #12 (designed binder)
chain: MRGSHHHHHHGSDLGKKLLQAARAGQLDEVRELLKAGADVNAKDQTGYTPLHLAARHGHLEIVEVLLKAGADVNAKDEYGWTPLHIAAFIGPLEIVEVLLKAGADVNAKDEQGATPLHLAAWQGHLEIVEVLLKAGADVNAQDKSGKTPADLAARAGHQDIAEVLQKAA
B3: DARPin® protein #11 (designed binder)
chain: MRGSHHHHHHGSDLGIKLLYAAYFGQDDEVRILLAAGADVNAKDWLGKTPLHLAATEGHLEIVEVLLKAGADVNAKDEWGETPLHKAAQEGHLEIVEVLLKAGADVNAQDSAGYTPADLAAQVGHEDIAEVLQKAA
B4: DARPin® protein #8 (designed binder)
chain: MRGSHHHHHHGSDLGHKLLFAAVRGQDDEVRILLAAGADVNAKDTRGVTPLHLAASWGHLEIVEVLLKAGADVNAKDELGNTPLHLAATDGHLEIVEVLLKAGADVNAQDWVGKTPADLAAWWGHEDIAEVLQKAA
B5: DARPin® protein #7 (designed binder)
chain: MRGSHHHHHHGSDLGAKLLNAATVGQDDEVRILLAAGADVNAKDWSGQTPLHHAAYTGHLEIVEVLLKAGADVNAKDSWGWTPLHLAAYTGHLEIVEVLLKAGADVNAQDKEGSTPADLAAFHGHEDIAEVLQKAA
B6: DARPin® protein #6 (designed binder)
chain: MRGSHHHHHHGSDLGKKLLEAARAGQDDEVRILLAAGTDVNAKDARGSTPLHVAAIHGHLEIVEVLLKAGADVNAKDTWGWTPLHLAAYAGHLEIVEVLLKAGADVNAQDEEGQTPADLAAFHGHEDIAEVLQKAA
B7: DARPin® protein #5 (designed binder)
chain: MRGSHHHHHHGSDLGFKLLQAALRGQLDEVRILLKAGADVNAKDQLGTTPLHLAAHYGHLEIVEVLLKAGADVNAKDVWGDTPLHLAAQHGHLEIVEVLLKAGADVNAQDRAGYTPADLAAQEGHEDIAEVLQKAA
B8: DARPin® protein #10 (designed binder)
chain: MRGSHHHHHHGSDLGFKLLNAAVQGQDDEVRILLAAGADVNAKDLRGTTPLHLAAQFGHLEIVEVLLKAGADVNAKDVWGATPLHLAAEHGHLEIVEVLLKAGADVNAQDNAGKTPADLAAQDGHEDIAEVLQKAA

The binders below were run against T1, biotinylated recombinant human CD70 … (assay: SPR (ProteOn XPR36), bio.CD70 immobilized on NLC chip, DARPin as analyte).
Description: The binding affinities of purified ankyrin repeat proteins on recombinant human CD70 target were analyzed using a ProteOn XPR36 instrument (BioRad) and the measurement was performed according standard procedures known to the person skilled in the art.
Bio.CD70 was immobilized on a NLC chip and the ankyrin repeat proteins were applied as titration with a starting concentration of 100 nM and then titrated down to 1.2 nM. The signals were double referenced against the PBST-treated control lane of L1 and A6. Analyte injection was performed for 120 s followed by a dissociation for 1500 s.

Question: With B1 as the binder, how does the Kd read?
Answer: The Kd was 3.1 nM.

Question: For B2, which Kd is on record?
Answer: The Kd was 28 nM.

Question: Which Kd does the source give for B3 here?
Answer: The Kd was 3 nM.

Question: Which Kd does the source give for B4 here?
Answer: Its Kd is 1.1 nM.

Question: For B5, which Kd is on record?
Answer: The Kd was 5.7 nM.

Question: Which Kd does the source give for B6 here?
Answer: The Kd was 43 nM.

Question: For B7, which Kd is on record?
Answer: Its Kd is 5.8 nM.

Question: How did the Kd turn out when B8 was run?
Answer: Its Kd is 16 nM.
